According to US20020028487A1 (UNIVERSITY COURT OF THE UNIVERSITY OF GLASGOW, published 2002):

B1: VP16-JMY^469-558 (other)
chain: EKLQYAVSKETLQMMRAKEICLEQKKHALKEEMQSLQGGTEAIARLDQLESDYYDLQLQLYEVQFEILKCEELLLTAQLESIKRLISEKR
notes: Two-hybrid prey used in yeast and in U2OS cells; also called pVP16-JMY^469-558; JMY-VP16
B2: Lex-JMY^469-558 (other)
chain: B1 chain
notes: Yeast two-hybrid bait; also called pLex-JMY^469-558; not shown: LexA part of bait vector pLex (his)

Key:
G4-p300^611-1257 = G4-p300^611-1257 (yeast, UniProt P04386 1-147; Q09472 611-1257); experiment: cell-based or functional assay
G4-p300^1572-2283 = G4-p300^1572-2283 (yeast, UniProt P04386 1-147; Q09472 1572-2283); experiment: cell-based or functional assay
[1] = biological target: T1, G4-p300 from residue 1302 to 1572 (yeast, UniProt P04386 1-147; Q09472 1302-1572); experiment: mammalian two-hybrid assay, U2OS cells, pG5-luc reporter
T1 construct: Mammalian two-hybrid bait; also called p300^302-1572 (as printed in the methods)

VP16-JMY^469-558 = biological target: B1; experiment: yeast two-hybrid, β-galactosidase induction; prey VP16-JMY^469-558

Binder | relative activity of luciferase to β-galactosidase (pG5-luc reporter, mammalian two-hybrid assay in U2OS cells) (G4-p300^611-1257) [fold increase] | relative activity of luciferase to β-galactosidase (pG5-luc reporter, mammalian two-hybrid assay in U2OS cells) (G4-p300^1572-2283) [fold increase] | binding result [1] | binding result (VP16-JMY^469-558)
B1 | 4 | 5 | no binding | –
B2 | – | – | – | binds
